According to patent US20060258000A1, “Use of steady-state oxygen gradients to modulate animal cell functions” (priority 2003, published 2006):

Experimental for CYP2B: Primary rat hepatocytes from 6-well plates or chamber slides were lysed and scraped in SDS buffered (10 mM Tris/HCl (ph 7.4), 0.1% SDS). Samples were added to microcentrifuge tubes with 5 μl of PMSF, homogenized with a pestle, and centrifuged at 16,200 g for 5 minutes. Total protein content in the supernatant was determined using the DC protein assay (Bio-Rad, Hercules, Calif.) and used to normalize sample loading. Samples prepared in sample buffer were loaded (10-20 μg/well) for electrophoresis on a 10% polyacrylamide gel. After overnight transfer on to a PVDF membrane, blots were incubated with a blocking buffered (20 mM Tris-Cl (pH 7.4), 500 mM NaCl, 0.1% Tween 20, and 5% (w/v) milk powder) and washed with buffer without milk powder, incubation for 1 h with primary antibody against rat PEPCK or rat CYP2B (Genset, Woburn, Mass.) was followed by washing and incubation with either anti-sheep (PEPCK) or anti-goat (CYP2B) HRP-conjugated secondary antibody for 45 minutes. After washing, the Pierce SuperSignal chemiluminescence reagent was used for detection. All electrophoresis gels were run with molecular mass markers to verify PEPCK bands (67 kDa) or CYP2B1/2 bands (56 kDa). Optical density measurements were obtained using scanned blot images with 1d gelscan software (Metamorph).

B1: epidermal growth factor (protein, UniProt P01133 23-1207, looked up)
Pro-epidermal growth factor: PQHWSCPEGTLAGNGNSTCVGPAPFLIFSHGNSIFRIDTEGTNYEQLVVDAGVSVIMDFHYNEKRIYWVDLERQLLQRVFLNGSRQERVCNIEKNVSGMAINWINEEVIWSNQQEGIITVTDMKGNNSHILLSALKYPANVAVDPVERFIFWSSEVAGSLYRADLDGVGVKALLETSEKITAVSLDVLDKRLFWIQYNREGSNSLICSCDYDGGSVHISKHPTQHNLFAMSLFGDRIFYSTWKMKTIWIANKHTGKDMVRINLHSSFVPLGELKVVHPLAQPKAEDDTWEPEQKLCKLRKGNCSSTVCGQDLQSHLCMCAEGYALSRDRKYCEDVNECAFWNHGCTLGCKNTPGSYYCTCPVGFVLLPDGKRCHQLVSCPRNVSECSHDCVLTSEGPLCFCPEGSVLERDGKTCSGCSSPDNGGCSQLCVPLSPVSWECDCFPGYDLQLDEKSCAASGPQPFLLFANSQDIRHMHFDGTDYGTLLSQQMGMVYALDHDPVENKIYFAHTALKWIERANMDGSQRERLIEEGVDVPEGLAVDWIGRRFYWTDRGKSLIGRSDLNGKRSKIITKENISQPRGIAVHPMAKRLFWTDTGINPRIESSSLQGLGRLVIASSDLIWPSGITIDFLTDKLYWCDAKQSVIEMANLDGSKRRRLTQNDVGHPFAVAVFEDYVWFSDWAMPSVMRVNKRTGKDRVRLQGSMLKPSSLVVVHPLAKPGADPCLYQNGGCEHICKKRLGTAWCSCREGFMKASDGKTCLALDGHQLLAGGEVDLKNQVTPLDILSKTRVSEDNITESQHMLVAEIMVSDQDDCAPVGCSMYARCISEGEDATCQCLKGFAGDGKLCSDIDECEMGVPVCPPASSKCINTEGGYVCRCSEGYQGDGIHCLDIDECQLGEHSCGENASCTNTEGGYTCMCAGRLSEPGLICPDSTPPPHLREDDHHYSVRNSDSECPLSHDGYCLHDGVCMYIEALDKYACNCVVGYIGERCQYRDLKWWELRHAGHGQQQKVIVVAVCVVVLVMLLLLSLWGAHYYRTQKLLSKNPKNPYEESSRDVRSRRPADTEDGMSSCPQPWFVVIKEHQDLKNGGQPVAGEDGQAADGSMQPTSWRQEPQLCGMGTEQGCWIPVSSDKGSCPQVMERSFHMPSYGTQTLEGGVEKPHSLLSANPLWQQRALDPPHQMELTQ
modifications: Pro-epidermal growth factor
CYP2B
  Effect of EGF on DEX-induced CYP2B spatial distribution: significant shift in CYP2B spatial distribution was noted from inlet regions to the outlet
CYP3A
  Effect of EGF on DEX-induced CYP3A induction: remained uniform
